In paper PMC4858972, “Structural and Biochemical Characterization of the Early and Late Enzymes in the Lignin β-Aryl Ether Cleavage Pathway from Sphingobium sp. SYK-6” (The Journal of Biological Chemistry, 2016):

Experiments:
purified protein [1] = substrate: COc1cc([C@H](O)[C@H](CO)Oc2ccccc2OC)ccc1O; test: purified protein; type: biochemical, Sphingobium sp. SYK-6; details: 5 mM NAD+, pH 9.0, 30 °C
purified protein [2] = substrate: COc1cc([C@H](O)[C@@H](CO)Oc2ccccc2OC)ccc1O; test: purified protein; type: biochemical, Sphingobium sp. SYK-6; details: 5 mM NAD+, pH 9.0, 30 °C

B1: LigL (Sphingobium sp. SYK-6) (protein)
chain: MDIAGTTAFITGGASGIGFGIAQRLLANGARLVLADIRQDHLDEARQFFEERQQGRNVHTIRLDVSDRAQMAEAARECEAVMGGPDILINNAGIDPSGPFKDATYQDWDYGLAINLMGPINGIMAFTPGMRARGRGGHIVNTASLAGLTPMPSFMAIYATAKAAVITLTETIRDSMAEDNIGVTVLMPGPIKSRIHESGQNRPERFRAGSGLAETEQQLAKRVVADNWMEPTEVGDMIVDAIVHNKLYVSTHGNWRETCEARFQALLDSMPEARPFDFGASLAVPKEEA
notes: synthetic gene in pCPD, C-terminal V. cholerae MARTX cysteine protease domain (CPD)-His tag self-cleaved after a Leu, expressed in E. coli (NEB Express), biological dimer
Which results are given for B1?
Km (purified protein [1]): 10.9 ± 0.8 µM; Vmax (purified protein [1]): 33.7 µmol/min/mg; kcat (purified protein [1]): 7.5 ± 0.1 s⁻¹; kcat/Km (purified protein [1]): 688000 ± 53000 M⁻¹ s⁻¹; Km (purified protein [2]): 20.3 ± 3.2 µM; Vmax (purified protein [2]): 21.8 µmol/min/mg; kcat (purified protein [2]): 4.9 ± 0.3 s⁻¹; kcat/Km (purified protein [2]): 240000 ± 41000 M⁻¹ s⁻¹
